{"source": "the nanobody polyreactivity screen of Harvey et al. (2022)", "data": [{"assay": "yeast display, Sf9 membrane polyspecificity reagent, FACS + sequencing; frameworks hold sequencing errors", "how_it_was_run": "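Genes from sorted yeast were amplified by colony PCR, read by MiSeq 2 × 250 sequencing and filtered on CDR length. These cells carried a synthetic nanobody library in Saccharomyces cerevisiae BJ5465 and were sorted by FACS into low and high (top ~1%) gates on anti-HA and streptavidin fluorescence. Polyreactivity is labelled according to the gate of origin.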", "values": [{"sequence": "QVQLLESGGGLVQAGGSLRLSCASSGRTFVYYAMGRYRQAPGKERELVAAITFSGGSTYYADSVKGRFTISRDNAKNTVYLQMNSLKPEDTAVYYCAAQYRYSYPLGDYWGQGPQVTVSS", "polyreactivity (PSR sort gate)": "low polyreactivity"}, {"sequence": "QVQLLESGGGLVQAGGSLRLSCMASGSILADRISWYRQAPRIEHELVATLYDGGITYYADSMKGRFTMSRDNAKNTVYLQMNSLRPEDTAVYYCGASFEGYRYHVYCGQGTQVTVSS", "polyreactivity (PSR sort gate)": "low polyreactivity"}, {"sequence": "QVQLLESGGGLVQAGGSLRLTCAASGFIFDQYGMGWYRQAPGKERELVASITSTGSTYYADSVKGRFTISRDNAKNTVYLQMNSLKPEDTAVYYCATDSYDGMDYWGHGTQVTVSS", "polyreactivity (PSR sort gate)": "low polyreactivity"}, {"sequence": "QVQLLESGGGLVQAGGSLRLTCAASGLTFSNYAMGWYRQAPGKERELVADIRSGGNTNYADSVKGRFTISRDNAKNTVYLQMNSLKPEDTAVYYCATDGYRIDVYHPDYRYDYWGQGTQVTVSS", "polyreactivity (PSR sort gate)": "low polyreactivity"}, {"sequence": "QVQLLESGGGLVQAGGSLRLTCAASGRTFYRNAMGWYRPAPGKERELVAAISSGGSTTYADSVKGRFTISRDNAKNTVYLQMNSLKPEDTAVYYCAARSHAGSVSPRLKEYDYWGQGTQVTVSS", "polyreactivity (PSR sort gate)": "low polyreactivity"}, {"sequence": "QVQLLESGGGLVQAGGSLSLTCAASGSTFTRYVMGWYRQAPGTETELVAAISSNGGRTYYADSVKGRFTISRDNAKNTVDLQMTSLKPEDTAVYYCNLVRYAYNASVVYWGQGTQVTVSS", "polyreactivity (PSR sort gate)": "high polyreactivity"}, {"sequence": "QVQLLESGGGLVQAGGTLRLSCAASGRTFYVNAMGWYRQAPGKERELVAAIRRGGSPNYADSVKGRFTISRDNEQNTVYLQMNSLKPEDTAVFYCNASPCGRKQYISPYDYRGQGTQVTVSS", "polyreactivity (PSR sort gate)": "low polyreactivity"}, {"sequence": "QVQLLESGGGLVQAGGTLRLSCSASGGIFVNYAMGWYRQAPGKERELVAAISRSGGSTYYADSVKGRFTISRDNAKNTVYLQLNSLKPEVTAVYYCNAVLQKYRFEYDYWGQGSQVTVSS", "polyreactivity (PSR sort gate)": "high polyreactivity"}, {"sequence": "QVQLLESGGGLVQAGVSLRLSCAASGRIFPYNAMGRYRQAAGKVREFVAAIYYSGGRTYYADSVKGRFTITRDNAKNTVYIQMNSLKPEDTAVYFCDISRYDYTKTEGGYWGQGTQVTVSS", "polyreactivity (PSR sort gate)": "low polyreactivity"}, {"sequence": "QVQLLESGGGLVQSGGSLRLSCAASGFIFYSYAMGGYRQAPGKERELVAAITEDGDSTYYADSVKWRFTISRDNAKNTVYLQMNSLNPEDTAGYYCNTDLTFNGTSGAYDYWGQGTQVTVSS", "polyreactivity (PSR sort gate)": "low polyreactivity"}, {"sequence": "QVQLLESGGRLVQAGGSLRLSCAPSGFIFISYALGWYRQAPGKERELDAAIDWRGGSSTYYADSVKGRFTISRDNAKNTVYFPMISLKPEDTAVYYCAAEGVTWYLWDFYDFYGYWGQGTQVTVSS", "polyreactivity (PSR sort gate)": "high polyreactivity"}, {"sequence": "QVQLLESGGRLVQAGGSLRLSCMASGSILGDRMSWYRQAPGKEHELVATIYDGGITYYADSMKGRFTISRDNAKNTVYLQMNSLRPEDTAVYYCGASFEGYRYHVYCGQGTQVTVSS", "polyreactivity (PSR sort gate)": "low polyreactivity"}, {"sequence": "QVQLLESRGGLVQAGGSLRLSCAASGRTIYTYAMGWYRQAPRTVRELVAAITYRGGNTYYADSVKGRFTISRDNAKYTVYLQMNSLKAEDTAVYDCIRRVAYLSGYSYDYWGQGTQVTVSS", "polyreactivity (PSR sort gate)": "high polyreactivity"}, {"sequence": "QVQLLESVGGLVQAGGSLRLSCAASGRIFGSNAMGWYRQAPGKERELVAAITRGGSTNYADSVKGRFTISRDNAKNTVYLQMNSLKPEDTAVYYCAVRWYRKYNYWGQGTQVTVSS", "polyreactivity (PSR sort gate)": "high polyreactivity"}, {"sequence": "QVQLLESVGGLVQAGGSLRLSCAASGRTFSRYAMGSYRQAPGKERELVATISSSGGTTYYADSVKGRFTISRDNAKNTVYLQMNSLKPEDTAVYYCNAESKKRTHASGYDYWGHGTQVTVSS", "polyreactivity (PSR sort gate)": "low polyreactivity"}, {"sequence": "QVQLLETGGGLVQAGGSLRLSCAASGLIFYYNVMGWYIQAPGKERELVASISYSSTRTYYADSVKGRFTISRDNAKNTVYLQMNSLKPEDTAVYYCNAVIRNSWIRGYWGQGTQVTVSS", "polyreactivity (PSR sort gate)": "low polyreactivity"}, {"sequence": "QVQLLETGGGLVQAGGSLRLSCAPSGSIFDSYAMGWYRQAPGKERELVATINTSGGSTYYADSVKGRFTIHDNAKNTVYLQMNSLKPEDTAVYYCNAGRWDYWQNNFGDYGYWGQGTQVTVSS", "polyreactivity (PSR sort gate)": "low polyreactivity"}, {"sequence": "QVQLLETGGGLVQAGGSLRLSFAASGSIFYRYSMVWYRQAPGKERELVAAISYSGGSTYYADSVKGRFTISRDNAKNTVYLQMNSLKPEDTAVYYCAKDYPPPISDYSRYYGYGYWGQGTQVTVSS", "polyreactivity (PSR sort gate)": "low polyreactivity"}, {"sequence": "QVQLLETGGGLVQAGRSLRLSCAASGFIFRANAMGWYRQAPGNERELVATISRSGGSTSYADSVKGRFTISRDNAKNTVYLQMNSLKPEDTAVYYCNKRTPYLRPILDYWGQGSQVTVSS", "polyreactivity (PSR sort gate)": "high polyreactivity"}, {"sequence": "QVQLLETGGGLVQAGVSLRLSSAASGRTFWTNGMGWYRQAPGKERELVASISTSGGRTYYADSVKGRFTISRDNSKNTVYLQMNSLKPEDTAVYYCAARALSHGARYDYWGQGTQVNVSS", "polyreactivity (PSR sort gate)": "high polyreactivity"}, {"sequence": "QVQLQDSGGGLVQAGGSLRLSCAASGTISDRAGMGWYRQAPAQNAIVATIDRGTNTNYADSVKGRFTISRDNAKNTVYLQMNSLKPEDTAVYNCAADGRYYIYLDYWGQGTQVTVSS", "polyreactivity (PSR sort gate)": "low polyreactivity"}, {"sequence": "QVQLQDSGGGLVQAGGSLRLSCAASGYIFGSGSMGWFRQAPGKERELVATINNGSSTYYADSVKGRFTISRDNAINTVYLQMNSLKPEDTAVYYCAAVRIRPLRYYYWGQGTQVTVSS", "polyreactivity (PSR sort gate)": "high polyreactivity"}, {"sequence": "QVQLQDSGVGLVQAGGSLRLSCAASGTISYRYRMGSYRQAPRKELELVAGISFGSITYNADSVKGRFTISRDNAKNTVYLQMNSLKPEDIAVYYCAVYQKSYRFFPYWGQGTQVTVSS", "polyreactivity (PSR sort gate)": "high polyreactivity"}, {"sequence": "QVQLQECGCGLVQAGCSLRLSCAASGTFSNSLKWLYCQAPGKEREFVATIGVGGSTNYADSVKGRFTISRDNAKNTVYLQMNSLKPEDTAVYYCAARLDTVTDYYYWGQGTQVTVSS", "polyreactivity (PSR sort gate)": "low polyreactivity"}, {"sequence": "QVQLQECGGALVQAGGSLRLSCAASGTFSNSEKWLYCQAPGKERELVSTIGVGGSTNYADSVKGRFTISRDNAKNTVYLQLNSLKPEDTAVYHCAAYGAASYFHYYRGQGTQVTVSS", "polyreactivity (PSR sort gate)": "low polyreactivity"}, {"sequence": "QVQLQECGGGLVQAGGSLRLSCAARGNIFDADIMGWYRQAPGKESELLASVTDGGSTNYADSVKGRFTISRDNAKNTVYLQMNSLKPEDSAVYYCAAIVYPDILTYFDYDYDYFYWGQGTQVTVGS", "polyreactivity (PSR sort gate)": "low polyreactivity"}, {"sequence": "QVQLQEGGGGLVQAGGSLRLSCAASGYISYGDDMGWYRQAPGEERELVASIGLDATTNYADSVKGRFTISRDNAKITVYLQMNSLKPEDTAVYYCAADVGSGVLCGYWGQGTQMTVSS", "polyreactivity (PSR sort gate)": "high polyreactivity"}, {"sequence": "QVQLQEGGGGQVQAGGSLRLSCAASGYITNGDVMGWSRQAPGEERELVASSGLDATTNYADSVKGRFTISRDNAKMTVYLQMNSLKPEDTAVYYCAADVGSGVLCGYWGQGTQMTVSS", "polyreactivity (PSR sort gate)": "high polyreactivity"}, {"sequence": "QVQLQEIGGGLVQAGGSLRQSYAASGYIFPSLAMGWYRQAQGKEREFVAAIGRGSTNNYADSVKGRFTISRDNAKNTAYQQMNSLKPEDTAVYYCAVVQRSKRTYPWYDYWGQGTQVTVSS", "polyreactivity (PSR sort gate)": "low polyreactivity"}, {"sequence": "QVQLQERGDGLGQAVGSLRLSCAASGYISGYYYLGWYRQAPGKEGVVVAGIDAFGSRTNFADCVKGRFTISRDNAKNPVDLQMNSLKPEETAVYYCAARPDGDRLFSYWGQGPQVTVSS", "polyreactivity (PSR sort gate)": "low polyreactivity"}, {"sequence": "QVQLQERGGGLVQAGGSLRLSCAASGIIYADGFMGLYRQAPGKEREFVATITGGGTSNYADSVKGRFTISRDNAKNTVYLQMNSLKPEDTAVYYCAVYFAWTIGFTYLGQGTQVTVSS", "polyreactivity (PSR sort gate)": "high polyreactivity"}, {"sequence": "QVQLQERGVGLVQAGGTISLGYDMVWYRQAPGKEREFVAGIDTCAITYYADSVKGRFTNSRDNAKNTVYLQMNILNPEDTAVYYCAANQTHTYAHSYWGQGTQVTVSS", "polyreactivity (PSR sort gate)": "high polyreactivity"}, {"sequence": "QVQLQESAAGLVQAGGSLRMSCAASGNIFDADIMGWYRQEPGKERELVASITDGRRTNYADSVKGRYTISRDSEKNTVYLQMNSLKPEDTAVYYCAAIAYPVVPTYFDYDSDYFHWGQGTQVTVSS", "polyreactivity (PSR sort gate)": "high polyreactivity"}, {"sequence": "QVQLQESAGGLVQAGGSLRLRCSASGYISCDASMGWNRQAPGKERELAASITKGSSTNYADSVKGRFTIRDNAKNTVYLQMNSLKPEDTAVCYCAVTYPYWGDYTYWGQGTQVTVSR", "polyreactivity (PSR sort gate)": "low polyreactivity"}, {"sequence": "QVQLQESAGGLVQAGGSLRLRCSASGYISCDASMGWYRQAPGKERELAASITKGSSTNYADSVKGRFTIRDNAKNTVYLQMNSLKPEDSAVCYCAVTYPYWGDYTYWGQGTQVTVSS", "polyreactivity (PSR sort gate)": "low polyreactivity"}, {"sequence": "QVQLQESAGGLVQAGGSLRLRCSASGYISCDASMGWYRQAPRKERELAASITKGSSTNYADSVKGRFTIRDNAKNSVYLQMNSLKPEDTAVFYCAVTYPYWGDYTYWGQGTQVTVSS", "polyreactivity (PSR sort gate)": "low polyreactivity"}, {"sequence": "QVQLQESAGGLVQAGGSLRLRFSASAYNSCDASMGWYSQAPGKERELSASISKGSSTNYADSVKGRFTIRDNAKNSVYLQMNSLKPEVTAVCYCAVTYPYWGDYTYWGQGTQVSVSS", "polyreactivity (PSR sort gate)": "low polyreactivity"}, {"sequence": "QVQLQESAGGMVQAGGSLRLRCSASGYISCDASMGWYRQAPGKERELAASITKGSRTNYADSVKGRFTIRDNAKNTVYLQMNSLKPEVTAVCYCAVTYPYWGDYTYWGQGTQVTVSS", "polyreactivity (PSR sort gate)": "low polyreactivity"}, {"sequence": "QVQLQESCGGLVQAGGSLRLSCAASGTIFRFRYMAWHRQAPGKERELVAGINGGTTTYYADSVIGLFTISRDNAKNTVYLQMNSLKPDDTAVYNCAAGASRLTYYDYWGQGTQVTVIS", "polyreactivity (PSR sort gate)": "low polyreactivity"}, {"sequence": "QVQLQESGDGLVQAGGSLRLSSAASGTIFSDYGMGGYRQAPGKERELLAGISDGCNTNYTDSVKGRFTISRDNAHRVSADEQPETGGYRGVLLRGSERWLLFYVYWGQGTQVTVSS", "polyreactivity (PSR sort gate)": "high polyreactivity"}, {"sequence": "QVQLQESGDGLVQAVGSLRLSCAASGYISGYYYMGWYRQAPGKERELVAGIDAFGSSTNYADCVKGRFTIRRDNAKNTVYLLMNSPKPEDTAVFYCAAEFDDWDYHWYWGQGTQVTVSS", "polyreactivity (PSR sort gate)": "low polyreactivity"}, {"sequence": "QVQLQESGDGLVQAVGSLRLSCAASGYISGYYYMGWYRQAPGKERELVAGIDAFGSSTNYADCVKGRLTISRDNAKNTVYLQMNSPKPEDTAVYYCAAEYDDWDYHWYWGQGTQVTVSS", "polyreactivity (PSR sort gate)": "low polyreactivity"}, {"sequence": "QVQLQESGGALVQAGGSLRLSCAASGYISAGRQMGWYRQAPGKELEFVATINGGATTNYADSVKGRFTISRDNAKNSVYLQMNSLKPEDTAVYYCAAVIWYVQDYTYWGQGAQVTVSS", "polyreactivity (PSR sort gate)": "high polyreactivity"}]}]}
